Data set [1] concerns HeLa Kyoto. Put plainly: melting temperature (median over replicates), in situ; higher = more thermally stable.
In data set [2] the test system is HeLa Kyoto. As to the kind of experiment: solubility change mitosis vs G1/S (difference of NP-40 vs SDS log2 ratios) (log2 ratio difference); higher = more soluble in mitosis.
The subject of data set [3] is HeLa Kyoto. Put plainly: solubility in G1/S (NP-40 vs SDS abundance) (log2 ratio); higher = more soluble. The settings on record: cell cycle stage: G1/S.
For data set [4], the system named is HeLa Kyoto. Put plainly: thermal stability score vs G1/S (z-score of summed log2 fold changes over temperatures); higher = more thermally stable than in G1/S.
Setting [5] is: cell cycle stage: early G1 (4.5 h after nocodazole release).

The text below walks through data of the supplement of paper PMC5998384.
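Wherever melting temperature (median over replicates), in situ is given: HeLa Kyoto cells synchronized by double thymidine or nocodazole block, proteins quantified by TMT10plex mass spectrometry, three independent biological replicates.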
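Wherever solubility change mitosis vs G1/S (difference of NP-40 vs SDS log2 ratios) is given: synchronized HeLa Kyoto cells (double thymidine block for G1/S, nocodazole release for mitosis), protein amounts in NP-40 versus SDS lysates quantified by mass spectrometry, three biological replicates.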
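Wherever solubility in G1/S (NP-40 vs SDS abundance) is given: HeLa Kyoto cells arrested at G1/S by double thymidine block, proteins quantified by TMT10plex mass spectrometry in mild NP-40 versus SDS extracts, three biological replicates.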
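Wherever thermal stability score vs G1/S (z-score of summed log2 fold changes over temperatures) is given: synchronized HeLa Kyoto cells, proteins quantified by TMT10plex mass spectrometry, three biological replicates, mitosis taken 0.5 h after nocodazole release, G1/S directly after double thymidine block.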

For the sequence “MPNIVLFSGSSHQDLSQRVADRLGLELGKVVTKKFSNQETSVEIGESVRGEDVYIIQSGCGEINDNLMELLIMINACKIASSSRVTAVIPCFPYARQDKKDKSRAPISAKLVANMLSVAGADHIITMDLHASQIQGFFDIPVDNLYAEPAVLQWIRENIAEWKNCIIVSPDAGGAKRVTSIADRLNVEFALIHKERKKANEVDRMVLVGDVKDRVAILVDDMADTCGTICHAADKLLSAGATKVYAILTHGIFSGPAISRINNAAFEAVVVTNTIPQEDKMKHCTKIQVIDISMILAEAIRRTHNGESVSYLFSHVPL [PRPS2]”, the melting temperature came to 55.1 °C in the data set with HeLa Kyoto [1] (cell cycle stage: G1/S) and 55.9 °C in the data set with HeLa Kyoto [1] (cell cycle stage: mitosis). For the same sequence, the “solubility change mitosis (log2)” value in the data set on HeLa Kyoto [2] is -0.112. In the data set with HeLa Kyoto [3], the “solubility in G1/S (log2)” value is -0.014. Further, the figures for the thermal stability score in the data set with HeLa Kyoto [4] (setting [5]) and with HeLa Kyoto [4] (cell cycle stage: mitosis) were 3.16 and 2.12, respectively.
As to “MPNQGEDCYFFFYSTCTKGDSCPFRHCEAAIGNETVCTLWQEGRCFRQVCRFRHMEIDKKRSEIPCYWENQPTGCQKLNCAFHHNRGRYVDGLFLPPSKTVLPTVPESPEEEVKASQLSVQQNKLSVQSNPSPQLRSVMKVESSENVPSPTHPPVVINAADDDEDDDDQFSEEGDETKTPTLQPTPEVHNGLRVTSVRKPAVNIKQGECLNFGIKTLEEIKSKKMKEKSKKQGEGSSGVSSLLLHPEPVPGPEKENVRTVVRTVTLSTKQGEEPLVRLSLTERLGKRKFSAGGDSDPPLKRSLAQRLGKKVEAPETNIDKTPKKAQVSKSLKERLGMSADPDNEDATDKVNKVGEIHVKTLEEILLERASQKRGELQTKLKTEGPSKTDDSTSGARSSSTIRIKTFSEVLAEKKHRQQEAERQKSKKDTTCIKLKIDSEIKKTVVLPPIVASRGQSEEPAGKTKSMQEVHIKTLEEIKLEKALRVQQSSESSTSSPSQHEATPGARRLLRITKRTGMKEEKNLQEGNEVDSQSSIRTEAKEASGETTGVDITKIQVKRCETMREKHMQKQQEREKSVLTPLRGDVASCNTQVAEKPVLTAVPGITRHLTKRLPTKSSQKVEVETSGIGDSLLNVKCAAQTLEKRGKAKPKVNVKPSVVKVVSSPKLAPKRKAVEMHAAVIAAVKPLSSSSVLQEPPAKKAAVAVVPLVSEDKSVTVPEAENPRDSLVLPPTQSSSDSSPPEVSGPSSSQMSMKTRRLSSASTGKPPLSVEDDFEKLIWEISGGKLEAEIDLDPGKDEDDLLLELSEMIDS [ZC3H11A]”, the melting temperature was 45.8 °C in the data set with HeLa Kyoto [1] (cell cycle stage: G1/S) and 48.6 °C in the data set with HeLa Kyoto [1] (cell cycle stage: mitosis). Further, in the data set with HeLa Kyoto [2], the “solubility change mitosis (log2)” value came to 0.559. For the same sequence, the “solubility in G1/S (log2)” value in the data set on HeLa Kyoto [3] was -0.583. Further, the thermal stability score turned out to be 2.36 in the data set on HeLa Kyoto [4] (setting [5]) and 7.44 in the data set on HeLa Kyoto [4] (cell cycle stage: mitosis).
As for “MPPPRTREGRDRRDHHRAPSEEEALEKWDWNCPETRRLLEDAFFREEDYIRQGSEECQKFWTFFERLQRFQNLKTSRKEEKDPGQPKHSIPALADLPRTYDPRYRINLSVLGPATRGSQGLGRHLPAERVAEFRRALLHYLDFGQKQAFGRLAKLQRERAALPIAQYGNRILQTLKEHQVVVVAGDTGCGKSTQVPQYLLAAGFSHVACTQPRRIACISLAKRVGFESLSQYGSQVGYQIRFESTRSAATKIVFLTVGLLLRQIQREPSLPQYEVLIVDEVHERHLHNDFLLGVLQRLLPTRPDLKVILMSATINISLFSSYFSNAPVVQVPGRLFPITVVYQPQEAEPTTSKSEKLDPRPFLRVLESIDHKYPPEERGDLLVFLSGMAEISAVLEAAQTYASHTQRWVVLPLHSALSVADQDKVFDVAPPGVRKCILSTNIAETSVTIDGIRFVVDSGKVKEMSYDPQAKLQRLQEFWISQASAEQRKGRAGRTGPGVCFRLYAESDYDAFAPYPVPEIRRVALDSLVLQMKSMSVGDPRTFPFIEPPPPASLETAILYLRDQGALDSSEALTPIGSLLAQLPVDVVIGKMLILGSMFSLVEPVLTIAAALSVQSPFTRSAQSSPECAAARRPLESDQGDPFTLFNVFNAWVQVKSERSRNSRKWCRRRGIEEHRLYEMANLRRQFKELLEDHGLLAGAQAAQVGDSYSRLQQRRERRALHQLKRQHEEGAGRRRKVLRLQEEQDGGSSDEDRAGPAPPGASDGVDIQDVKFKLRHDLAQLQAAASSAQDLSREQLALLKLVLGRGLYPQLAVPDAFNSSRKDSDQIFHTQAKQGAVLHPTCVFAGSPEVLHAQELEASNCDGSRDDKDKMSSKHQLLSFVSLLETNKPYLVNCVRIPALQSLLLFSRSLDTNGDCSRLVADGWLELQLADSESAIRLLAASLRLRARWESALDRQLAHQAQQQLEEEEEDTPVSPKEVATLSKELLQFTASKIPYSLRRLTGLEVQNMYVGPQTIPATPHLPGLFGSSTLSPHPTKGGYAVTDFLTYNCLTNDTDLYSDCLRTFWTCPHCGLHAPLTPLERIAHENTCPQAPQDGPPGAEEAALETLQKTSVLQRPYHCEACGKDFLFTPTEVLRHRKQHV [DHX34]”, the melting temperature is 50.1 °C with HeLa Kyoto [1] (cell cycle stage: G1/S) and 49.8 °C with HeLa Kyoto [1] (cell cycle stage: mitosis). For the same sequence, in the data set with HeLa Kyoto [2], the “solubility change mitosis (log2)” value was -0.0525. For the same sequence, the “solubility in G1/S (log2)” value in the data set with HeLa Kyoto [3] is -0.242. Further, the thermal stability score in the data set on HeLa Kyoto [4] (setting [5]) came out at 0.188; with HeLa Kyoto [4] (cell cycle stage: mitosis), 0.311.
Consider “MPQYQTWEEFSRAAEKLYLADPMKARVVLKYRHSDGNLCVKVTDDLVCLVYKTDQAQDVKKIEKFHSQLMRLMVAKEARNVTMETE [SRP9]”, for which the results for the melting temperature with HeLa Kyoto [1] (cell cycle stage: G1/S) and in the data set with HeLa Kyoto [1] (cell cycle stage: mitosis) were 53.5 °C and 52.1 °C, respectively. For the same sequence, the “solubility change mitosis (log2)” value in the data set on HeLa Kyoto [2] was determined as 0.394. Further, the “solubility in G1/S (log2)” value with HeLa Kyoto [3] was -0.607. The figures for the thermal stability score in the data set on HeLa Kyoto [4] (setting [5]) and in the data set on HeLa Kyoto [4] (cell cycle stage: mitosis) were -2.84 and -5.71, respectively.
Take “MPRARKGNTLRKGGQRRGGGARSSAQADSGSSDDEAASEARSTASECPSLLSTTAEDSLGGDVVDEQGQQEDLEEKLKEYVDCLTDKSAKTRQGALESLRLALASRLLPDFLLERRLTLADALEKCLKKGKGEEQALAAAVLGLLCVQLGPGPKGEELFHSLQPLLVSVLSDSTASPAARLHCASALGLGCYVAAADIQDLVSCLACLESVFSRFYGLGGSSTSPVVPASLHGLLSAALQAWALLLTICPSTQISHILDRQLPRLPQLLSSESVNLRIAAGETIALLFELARDLEEEFVYEDMEALCSVLRTLATDSNKYRAKADRRRQRSTFRAVLHSVEGGECEEEIVRFGFEVLYMDSWARHRIYAAFKEVLGSGMHHHLQNNELLRDIFGLGPVLLLDATALKACKVPRFEKHLYNAAAFKARTKARSRVRDKRADIL [IFRD2]”: the values for the melting temperature with HeLa Kyoto [1] (cell cycle stage: G1/S) and with HeLa Kyoto [1] (cell cycle stage: mitosis) were 56.3 °C and 54.5 °C, respectively. For the same sequence, the “solubility change mitosis (log2)” value with HeLa Kyoto [2] amounted to 0.211. Besides, the “solubility in G1/S (log2)” value in the data set on HeLa Kyoto [3] was -0.734. Also, the thermal stability score in the data set with HeLa Kyoto [4] (setting [5]) is -2.6; in the data set on HeLa Kyoto [4] (cell cycle stage: mitosis), -1.01.
